# Experimental data from the supplement of paper PMC10567573.
# B1: YPEL3 (parent)
# chain: SKPKTFQAYLDDCHRRYSCAHCRA
# Variants of: B1
# Assay: protein stability index of a GFP-peptide fusion (GPS, HEK-293T) (PSI 1-6); higher = more stable
# Conditions: c terminus: a fixed tail appended
# 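Note: lentivirally expressed fusions sorted by FACS into six bins by GFP to DsRed ratio, PSI derived from sequencing read proportions per bin multiplied by bin number.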
row,Variant,protein stability index
1,SKPKTFQAYLDDCHRRKSCAHCRA [Y17K],3.43
2,SKPKTFQAYLDDCHRRYSCAHCRW [A24W],2.39
3,SKPKTFQAYLDDCHRSYSCAHCRA [R16S],1.59
4,SKPKTRQAYLDDCHRRYSCAHCRA [F6R],3.21
5,SKPKTFQAYLDDCHRRYSSAHCRA [C19S],2.87
6,SKPKTFQAYLDDCHRRYSCCHCRA [A20C],1.31
7,SKFKTFQAYLDDCHRRYSCAHCRA [P3F],3.23
8,SKPKTFQAYLDDCHRRYSCAHCWA [R23W],2.08
9,SKPKTFQASLDDCHRRYSCAHCRA [Y9S],1.4
10,SKPKKFQAYLDDCHRRYSCAHCRA [T5K],2.25
11,SKPLTFQAYLDDCHRRYSCAHCRA [K4L],2.42
12,STPKTFQAYLDDCHRRYSCAHCRA [K2T],2.19
13,RKPKTFQAYLDDCHRRYSCAHCRA [S1R],1.92
14,SKPKTFQAYLADCHRRYSCAHCRA [D11A],1.89
15,SKPKTFQAYLDDCHARYSCAHCRA [R15A],2.1
16,SKPQTFQAYLDDCHRRYSCAHCRA [K4Q],1.8
17,SKPKTFQAYLDTCHRRYSCAHCRA [D12T],2.35
18,SKPKTFQAYLDDCHRRYSVAHCRA [C19V],2.41
19,SKPKTFQAYLDDCHWRYSCAHCRA [R15W],2.2
20,SKPKIFQAYLDDCHRRYSCAHCRA [T5I],2.75
21,SKPKTFQAYLNDCHRRYSCAHCRA [D11N],2.6
22,SKPKTFQAYLDDCHRKYSCAHCRA [R16K],1.73
23,SKPKTFQAALDDCHRRYSCAHCRA [Y9A],2.19
24,SKPKWFQAYLDDCHRRYSCAHCRA [T5W],1.99

row,Variant,protein stability index
1,SKPKTFQAYLDLCHRRYSCAHCRA [D12L],2.34
2,SKQKTFQAYLDDCHRRYSCAHCRA [P3Q],1.97
3,SKPKTDQAYLDDCHRRYSCAHCRA [F6D],3.54
4,SKPKTFQMYLDDCHRRYSCAHCRA [A8M],1.66
5,SKPKTFQAYLKDCHRRYSCAHCRA [D11K],2.83
6,SKPKTFQAYWDDCHRRYSCAHCRA [L10W],2.05
7,SKPKTFQAYLDDCHMRYSCAHCRA [R15M],1.68
8,PKPKTFQAYLDDCHRRYSCAHCRA [S1P],2.67
9,SKPVTFQAYLDDCHRRYSCAHCRA [K4V],2.57
10,SKPKTFDAYLDDCHRRYSCAHCRA [Q7D],2.68
11,SDPKTFQAYLDDCHRRYSCAHCRA [K2D],2.89
12,SKPKTFQAYLDDGHRRYSCAHCRA [C13G],2.07
13,SKPKTFQAYLDDCMRRYSCAHCRA [H14M],2.34
14,SKPKQFQAYLDDCHRRYSCAHCRA [T5Q],2.55
15,SKPKTFHAYLDDCHRRYSCAHCRA [Q7H],2.2
16,SKPKTFQAYLDDCHRRYYCAHCRA [S18Y],1.48
17,SKPKVFQAYLDDCHRRYSCAHCRA [T5V],2.05
18,YKPKTFQAYLDDCHRRYSCAHCRA [S1Y],1.99
19,SKPKTFQAYLDDCHRRYSCAQCRA [H21Q],2
20,SKPKTFQAYLDDCHRRYSCLHCRA [A20L],1.64
21,SKPKTFNAYLDDCHRRYSCAHCRA [Q7N],2.04
22,SKPKTFQAYLDDCHRRYSCAHCRT [A24T],1.54
23,SKPKTFQAYLDDCHRRYSCAHCRV [A24V],1.84
